Experimental data from IntAct's records for PubMed 31324769.

Columns and labels:
mon2_human MON2 = mon2_human MON2 (UniProt Q7Z3U7)
klc2_human KLC2 = klc2_human KLC2 (UniProt Q9H0B6)
klc2_human KLC2, sequence (Q9H0B6 whole entry): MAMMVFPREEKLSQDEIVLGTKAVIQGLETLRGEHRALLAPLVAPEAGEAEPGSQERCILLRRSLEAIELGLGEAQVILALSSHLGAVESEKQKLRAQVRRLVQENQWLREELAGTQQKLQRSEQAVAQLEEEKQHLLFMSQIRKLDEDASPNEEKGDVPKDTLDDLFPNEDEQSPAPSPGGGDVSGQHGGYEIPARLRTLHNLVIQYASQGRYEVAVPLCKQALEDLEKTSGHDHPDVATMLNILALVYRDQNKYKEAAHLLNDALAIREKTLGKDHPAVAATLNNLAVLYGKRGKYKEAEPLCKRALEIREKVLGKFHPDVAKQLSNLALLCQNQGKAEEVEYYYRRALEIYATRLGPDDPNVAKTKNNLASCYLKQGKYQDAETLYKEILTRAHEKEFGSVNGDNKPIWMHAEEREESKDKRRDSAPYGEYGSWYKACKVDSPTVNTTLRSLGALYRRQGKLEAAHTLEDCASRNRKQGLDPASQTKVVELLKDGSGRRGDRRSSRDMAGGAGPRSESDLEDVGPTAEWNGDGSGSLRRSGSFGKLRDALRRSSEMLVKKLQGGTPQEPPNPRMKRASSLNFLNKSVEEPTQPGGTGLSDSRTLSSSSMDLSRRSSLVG

mon2_human MON2, sequence (Q7Z3U7 whole entry): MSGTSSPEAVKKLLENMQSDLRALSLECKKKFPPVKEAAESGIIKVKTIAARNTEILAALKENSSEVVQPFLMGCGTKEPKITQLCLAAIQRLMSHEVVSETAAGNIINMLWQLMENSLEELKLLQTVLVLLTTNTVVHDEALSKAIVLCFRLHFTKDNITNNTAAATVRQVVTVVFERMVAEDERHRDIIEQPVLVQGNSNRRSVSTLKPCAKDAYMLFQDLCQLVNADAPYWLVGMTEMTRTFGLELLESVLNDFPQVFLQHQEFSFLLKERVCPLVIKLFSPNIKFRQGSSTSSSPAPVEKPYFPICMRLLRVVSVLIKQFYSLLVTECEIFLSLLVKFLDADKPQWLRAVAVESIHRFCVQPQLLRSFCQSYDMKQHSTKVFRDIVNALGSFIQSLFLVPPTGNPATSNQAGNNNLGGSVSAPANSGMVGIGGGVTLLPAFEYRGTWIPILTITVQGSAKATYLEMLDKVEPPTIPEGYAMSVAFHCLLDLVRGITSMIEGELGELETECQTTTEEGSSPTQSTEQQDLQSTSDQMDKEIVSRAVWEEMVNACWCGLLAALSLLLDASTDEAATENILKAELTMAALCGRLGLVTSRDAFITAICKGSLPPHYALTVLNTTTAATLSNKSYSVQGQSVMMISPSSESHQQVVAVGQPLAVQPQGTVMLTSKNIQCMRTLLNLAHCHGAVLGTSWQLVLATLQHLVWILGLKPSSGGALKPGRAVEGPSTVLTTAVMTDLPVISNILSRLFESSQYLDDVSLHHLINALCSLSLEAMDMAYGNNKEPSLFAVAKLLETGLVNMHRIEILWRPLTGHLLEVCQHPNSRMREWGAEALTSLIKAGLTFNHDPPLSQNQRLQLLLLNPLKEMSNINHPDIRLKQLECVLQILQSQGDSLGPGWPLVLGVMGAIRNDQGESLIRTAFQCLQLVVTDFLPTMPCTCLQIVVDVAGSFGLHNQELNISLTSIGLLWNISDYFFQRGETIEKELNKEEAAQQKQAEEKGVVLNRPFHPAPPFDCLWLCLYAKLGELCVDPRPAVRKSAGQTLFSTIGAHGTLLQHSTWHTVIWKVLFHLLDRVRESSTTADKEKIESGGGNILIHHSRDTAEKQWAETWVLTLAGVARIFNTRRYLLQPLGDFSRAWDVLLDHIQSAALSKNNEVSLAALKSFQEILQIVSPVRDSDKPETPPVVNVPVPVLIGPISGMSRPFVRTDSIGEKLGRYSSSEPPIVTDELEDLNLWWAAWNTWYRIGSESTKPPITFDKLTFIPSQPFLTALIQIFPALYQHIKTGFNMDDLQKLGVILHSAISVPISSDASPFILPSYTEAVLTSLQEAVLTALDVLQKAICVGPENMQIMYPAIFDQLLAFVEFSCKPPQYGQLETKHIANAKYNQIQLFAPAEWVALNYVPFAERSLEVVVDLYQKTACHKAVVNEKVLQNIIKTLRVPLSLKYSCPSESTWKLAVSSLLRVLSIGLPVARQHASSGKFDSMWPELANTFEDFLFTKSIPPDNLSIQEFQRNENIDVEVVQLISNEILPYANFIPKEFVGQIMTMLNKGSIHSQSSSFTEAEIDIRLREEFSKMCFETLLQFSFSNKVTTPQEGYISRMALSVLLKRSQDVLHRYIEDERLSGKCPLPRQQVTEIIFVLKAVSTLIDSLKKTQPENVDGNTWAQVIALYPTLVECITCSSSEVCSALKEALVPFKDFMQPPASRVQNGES

Substance | effect of a mutation on the interaction (mon2_human MON2) | effect of a mutation on the interaction (klc2_human KLC2)
Protein DOP1A (Homo sapiens), Q5JWR5 L2178A;K2179A;R2180A;L2181A | with no effect | –
Protein DOP1A (Homo sapiens), Q5JWR5 W34A | – | disrupting interaction strength
Protein DOP1A (Homo sapiens), Q5JWR5 W186A | – | disrupting interaction strength
